The values that follow come from patent US20260209316A1 (US Dept. of Health and Human Services, published 2026).

Sequences and labels used below:
B1: Fab generated from 316L (Fab, V domains shown)
VH: EERLVESGGGLVQPGGSLRLSCAASGFTFGDYAMHWVRQVPGKSLEWLSGISWSGYTTYSADSVKGRFTISRDNAKNSLYLQMNRLRPEDTGLYYCVTLIGAIGIKDSLDVWGRGVLVTVSS
VL: QSVLTQPPSVSGAPGQRVTVSCSGSSSNIGAGNYVQWYQQLPGTAPKVLIYQTEKRPSGTSDRFSGSKSDTSASLTINGLQSEDEADYYCQVYDSNLNGWVFGGGTRLTVL
notes: also called 316L Fab
B2: antibody 335S (antibody, V domains shown)
VH: EVQLVESGGGVVQPGRSLRLSCAASGFSFSNYAMHWVRQAPGKGLEWVAVTWYDGSSKYHADSVKGRFTISRDNSKNTLYLQMNSLRAEDTAVYYCARWGMGIVASPGNVLNYYYFMDVWGQGTTVIVSS
VL: SYELTQPPSVSVSPGQTARITCSGNPLPKKHTYWYQQKPGQAPVLMIYKDSERPSRIPERFSGSSSGTTVTLTISGVQAEDEADYYCQSADSTGIVVFGGGTKLTVL
B3: antibody 382S (antibody, V domains shown)
VH: QVQLVQSGAEVKKPGSSVKVSCKASGGTFSNYGISWVRQAPGQGLEWMGRNIPIIGIANYAQKFQDRVTITADKSTSTVFMELRSLRYEDTAVYYCARDPLAARRGNWFDPWGQGTLVTVSS
VL: DIQMTQSPSTLSASVGDRVTITCRASQSVSSWLAWYQQKPGKAPKLLIYDASTLQSGVPSRFSGSGSGTEFTLTISSLQPDDFATYYCQQYNSYSYTFGQGTKLEIK
B4: antibody 365S (antibody, V domains shown)
VH: EVQLVESGGGLVQPGGSLRLSCAASGLTFSAYEMNWVRQAPGKGLEWVSHITTSGSAIYYADSVKGRFTISRDNAKNSLHLQMNRLRADDTAVYFCARDSTIVQCSGTSCHVSTYSYMDVWGKGTTVTVSS
VL: EIVLTQSPATLSLSPGERATLSCRASQSVTTYLAWYQHKPGQAPRLLIYDASKRATGIPARFSGSGSGTDFTLTISSLEPEDFAVYHCQQRSSWPPITFGQGTRLEIK
B5: antibody 405S (antibody, V domains shown)
VH: EVQLVESGGGLIQPGGSLRLSCAASGFTVSSHYMSWVRQAPGKGLEWVSGIYSGGRTHYADSVKGRFTISRDNSKNTLYLQMNSLRADDTAVYSCARGTLLYLYGMDVWGQGTTVTVSS
VL: QSVLTQPPSVSAAPGQRVTISCTGSSSNIGAGYNVHWYQQLPGAAPKLLIYGNTNRPSGVPDRFSGSKSGTSASLAITGLQAEDEADYYCQSFDSSLSGVFGTGTKVTVL
B6: antibody 285S (antibody, V domains shown)
VH: QVQLVQSGAEVKKPGSSVKVSCKASGGTFSTYAITWVRQAPGQGLEWMGRIIPILRVANYAQKFQGRVTITADSSTSTAYMELSSLRSEDTAVYYCANLLAYCGGDCRSDYWGQGTLVTVSS
VL: EIVLTQSPGTLSLSPGERATLSCRASQSVKNSYLAWYHQKPGQAPRLLIYGASSRATGIPDRFSGSGSGTDFTLTISRLEPEDFAVYYCQQYGSSLWTFGQGTKVDVK
B7: antibody 578S (antibody, V domains shown)
VH: EVQLVESGGGVVQPGRSLRLSCAASGFTFSSYELHWVRQAPGKGLEWVAVISYDGSSKYYADSLKGRFTISRDNSKNTLSLQMNSLRAEDTAMYYCVRQSEAYCSDGRCDWRRALDIWGQGTMVTVSP
VL: DIQMTQSPSSLSASVGDRVTITCQASQDIKNYLNWYQQKPGKAPKLLIYDVSKLETGVPSRFSGSGSGTDFSFTISSLQPEDIATYYCQQYDNLPSYTFGQGTKLEIK
B8: antibody 102S (antibody, V domains shown)
VH: EVQLVESGGGLVQPGGSLRLSCSASGFTFHSYDMNWARQAPGKGLEWVSEISSSGQSKNYADSVRGRFTISRDNAKNSLYLQINSLRSEDTAVYYCARVGFVAKFGSDFSITHGTYYLDYWGQGTLVTVSS
VL: QLVLTQSPATLSLSPGERATLSCRASQSVSNYLAWYQQKPGQAPRLLIYDASNRAPGVPARFSGSGSGTDFSLTISSLEPEDFAVYYCLQRSNWPPWTFGQGTKVEIK
B9: antibody 206L (antibody, V domains shown)
VH: EVQLVESGGGVVQPGGSLRLSCAASGFTFDDYAMHWVRQAPGKGLEWVSGISWSGGNTYYADSVKGRFTVSRENAKNSLYLQMNRLRAEDTAFYNCARTSQGGAVVFSAPNYWGQGVLVTVSS
VL: QSVLTQAPSVSGAPGQRVTISCTGSSSNIGGYYVQWYQQLPGRAPKLLIYENNKRPSGVSDRFSGSRSASSASLTITGLQSEDEADYYCQSYDSRLNGYIFGGGTRLTVL
B10: antibody 191L (antibody, V domains shown)
VH: EVQLVESGGGLVQPGGSLRLSCAASGFTFSSYGIHWVRQAPGKGLEWVAIISYDGNKKFHADSVKDRFTISRDNSKNMLYLQMNNLKLEDTAVYYCARAYDSGYFAGSVFYYWGQGVLVTVSS
VL: EVVFTQPHSVSGSPGQTVTISCTRSSGSIDSEYVQWYQQRPGNAPTTVIYKDNQRPSGVPDRFSGSIDSSSNSASLAISGLKSEDEADYYCQSADGNYHPVFGEGTRLTVL
B11: antibody 314L (antibody, V domains shown)
VH: B1 VH
VL: EVVFTQPHSVSGSPGQMVTISCTRSSGTIDNSYVYWHQQRPGSAPTTVIYNDDQRPSGVPDRFSGSIDSSSNSASLTISGLKSEDEADYYCQSYDSSGWVFGGGTRLTVL
B12: antibody 315L (antibody, V domains shown)
VH: QVQLQESGPGLVKPSETLSLTCTVSGGSITGNYWTWVRQPPGKGLQYIGRFDAGGKTYYNPPLKSRVSILGDKSKNQVSLNLTSVTVADTGVYYCAREQWGQLLSGSFDVWGRGVLVTVSS
VL: SYELTQPPSVSVSPGQTARITCSGDALPDYYAHWYQQKSGQAPMLVIYKDTERPSGIPERFSGSSSGTTVSLTISGVQAEDEADYYCQSGDSSGNHWVFGGGTRLTVL
B13: antibody 310L (antibody, V domains shown)
VH: EMQLVESGGGLVQPGGSLRLSCAASGFTFDAYAMHWVRQRPGKGLEWISGIIWSGRTTYYADSVKGRFTFSRDNSKNSLYLEMNSLKPEDTALYYCAKDSWNYGVYNSLDVWGRGILVTVSS
VL: QSVLTQPPSVSGAPGQRVTISCTGSSSNVGPHYVSWYQHLPGTTPKLLIFQDNKRPSGVSDRFSGSKSASSASLTITGLQTEDEADYYCLSYDSSLNVYIFGSGTRLTVL
B14: antibody 231L (antibody, V domains shown)
VH: EVQLVESGGGLVQPGGSLRLSCAASAFTFDDYAMHWVRQAPGKGLEWVSGITWSGLSTYYADSVKGRFTISRDNAKNSLYLQMNSLRVEDTALYYCAKSGNNSPFSGLDSWGQGAVVTVSS
VL: QSVLTQPPSVSGAPGQRVTVSCTGSSSNIGAGSYVQWYQQLPGTAPKLLIYENNKRPSGVSDRFSGSKSGTSASLTITGLQSEDEADYYCQSYDSSLNAYIFGAGTRLTVL

The term Kd denotes the free concentration of one partner at which half of the binding sites on the other are occupied at equilibrium, for simple one-to-one binding. Read a low Kd as tighter binding. The term koff denotes the rate constant with which the complex falls apart. The low end stands for a long-lived complex, the high end for a short-lived complex. The kon is a measure of how fast the partners come together. Low readings indicate slower complex formation, high ones faster complex formation. As a reminder, the EC50 is the concentration at which the effect is half-maximal. A high value points to a need for much substance.

The target of the first assay is T1, mucin domain-deleted Sudan GP (GPdMuc) (Sudan virus (SUDV), UniProt Q7T9D9 33-632).
T1 construct: also called Sudan GPdMuc; GP(S)dMuc
Nature of the assay: BLI, Fab, pH 5.3.
In turn, B1 gave a Kd of 0.46 nM, a koff of 5.26e-05 s⁻¹ and a kon of 112000 M⁻¹ s⁻¹.

The target in a further assay is T1, mucin domain-deleted Sudan GP (GPdMuc). Nature of the assay: BLI, Fab, pH 7.4. (In BLI a coated tip is dipped into the sample, and binding shifts an interference pattern.)
Consider B1, for which the Kd was 0.372 nM, the koff is 5.38e-05 s⁻¹ and the kon was determined as 145000 M⁻¹ s⁻¹.

For another assay, the target named is T2, mucin domain-deleted Zaire GP (GPdMuc) (Ebola (Zaire) virus (EBOV), UniProt Q05320 33-632).
T2 construct: also called Zaire GPdMuc; GP(Z)dMuc
Briefly: BLI, Fab, pH 7.4.
B1 came in with a Kd of 13.3 nM, a koff of 0.0015 s⁻¹ and a kon of 115000 M⁻¹ s⁻¹.

A further assay deals with T1, mucin domain-deleted Sudan GP (GPdMuc). Briefly: ELISA on coated GP. For orientation: ELISA stands for enzyme-linked immunosorbent assay.
Molecule B2 registered an EC50 of 0.02 µg/mL.

Turning to B3, the EC50 was determined as 0.26 µg/mL.

In the case of B4, the EC50 came to 0.06 µg/mL.

For B5, the EC50 came out at 0.04 µg/mL.

Take B6: the EC50 turned out to be 0.02 µg/mL.

With B7, the EC50 amounted to 0.09 µg/mL.

Turning to B8, the EC50 was 0.09 µg/mL.

For the next assay the target is unchanged. Nature of the assay: ELISA on coated GP. The source holds these as a separate data set.
With B9, the midpoint of the response, the EC50, lay at 0.2 µg/mL.

In the case of B10, the EC50 is 1.74 µg/mL.

B11 registered an EC50 of 0.31 µg/mL.

For B12, the response was half-maximal at 0.12 µg/mL (EC50).

With B13, the EC50 came out at 0.34 µg/mL.

Take B14: the EC50 came to 0.02 µg/mL.

A further assay has as its target T2, mucin domain-deleted Zaire GP (GPdMuc). Briefly: ELISA on coated GP.
B9 had an EC50 of 0.01 µg/mL.

B10 returned an EC50 of 0.01 µg/mL.

The molecule B11 yielded an EC50 of 2.6 µg/mL.

B12 gave an EC50 of 1.5 µg/mL. Compared with the last molecule, the EC50 is about 1.7-fold lower.

Molecule B13 showed an EC50 of 0.01 µg/mL.

With B14, the EC50 stood at 0.01 µg/mL.

Another assay addresses T1, mucin domain-deleted Sudan GP (GPdMuc). Nature of the assay: BLI competition on Sudan GPdMuc (lower table); competitor 16F6.
In the case of B2, the “% inhibition of binding” value stood at 8.17%.

As to B3, the “% inhibition of binding” value turned out to be 13.6%.

For the molecule B4, the “% inhibition of binding” value amounted to 12%.

Regarding B5, the “% inhibition of binding” value turned out to be 10.1%.

As to B6, the “% inhibition of binding” value came to 3.29%.

As to B7, the “% inhibition of binding” value came to 11.1%.

In the case of B8, the “% inhibition of binding” value was determined as 19.4%.

Another assay shares this target. Briefly: BLI competition on Sudan GPdMuc (lower table); competitor 316L.
On to B2, for which the “% inhibition of binding” value is 1.49%.

On to B3, for which the “% inhibition of binding” value turned out to be 10.7%.

Take B4: the “% inhibition of binding” value turned out to be 5.16%.

Regarding B5, the “% inhibition of binding” value is 7.24%.

In the case of B6, the “% inhibition of binding” value was -6.78%.

Turning to B7, the “% inhibition of binding” value was determined as 7.8%.

For B8, the “% inhibition of binding” value is 10.3%.

Another assay has the same target. Nature of the assay: BLI competition on Sudan GPdMuc (lower table); competitor 15H10.
For B2, the “% inhibition of binding” value worked out at 8.78%.

Consider B3, for which the “% inhibition of binding” value came to 17.6%.

With B4, the “% inhibition of binding” value came out at 9.47%.

Turning to B5, the “% inhibition of binding” value was 11.1%.

B6: the “% inhibition of binding” value is 7.47%.

As for B7, the “% inhibition of binding” value amounted to 7.51%.

As for B8, the “% inhibition of binding” value was determined as 11.9%.

The next assay shares this target. Briefly: BLI competition on Sudan GPdMuc (lower table); competitor mAb166.
B2: the “% inhibition of binding” value came out at 80%.

B3: the “% inhibition of binding” value is 84.9%.

With B4, the “% inhibition of binding” value came to 84.2%.

Take B5: the “% inhibition of binding” value worked out at 84.1%.

As for B6, the “% inhibition of binding” value amounted to 64.6%.

For B7, the “% inhibition of binding” value came to 86.6%.

For B8, the “% inhibition of binding” value turned out to be 78.2%.
